From publication PMC5932034 (2018)

B1: fused FliS−FliC^C construct (FliC^C fused to the C terminus of FliS) [not stated] / cytoplasmic domain of Salmonella enterica serovar Typhimurium FlhA (FlhA^C) [Salmonella enterica serovar Typhimurium ST313] (parent complex)
chain 1: MYTASGIKAYAQVSVESAVMSASPHQLIEMLFDGANSALVRARLFLEQGDVVAKGEALSKAINIIDNGLKAGLDQEKGGEIATNLSELYDYMIRRLLQANLRNDAQAIEEVERLLSNIAEAWKQISPKASFQESRGTASGAGGSEGGGSEGGTSGATEDSDYATEVSNMSRAQILQQAGTSVLAQANQVPQNVLSLLR
chain 2: SLGMEVGYRLIPMVDFQQDGELLGRIRSIRKKFAQDMGFLPPVVHIRDNMDLQPARYRILMKGVEIGSGDAYPGRWLAINPGTAAGTLPGEKTVDPAFGLDAIWIESALKEQAQIQGFTVVEASTVVATHLNHLIGQFSAELFGRQEAQQLLDRVSQEMPKLTEDLVPGVVTLTTLHKVLQNLLAEKVPIRDMRTILETLAEHAPLQSDPHELTAVVRVALGRAITQQWFPGNEEVQVIGLDTALERLLLQALQGGGGLEPGLADRLLAQTQEALSRQEMLGAPPVLLVNHALRPLLSRFLRRSLPQLVVLSNLELSDNRHIRMTATIGGK
B2: fused FliT−FliD^C construct (FliD^C fused to the N terminus of FliT) [Salmonella enterica serovar Typhimurium ST313] / cytoplasmic domain of Salmonella enterica serovar Typhimurium FlhA (FlhA^C) [Salmonella enterica serovar Typhimurium … (parent complex)
chain 1: GAHMSIDETVARYKAQFTQLDTMMSKLNNTSSYLTQQFTAMNKSGGSGGSGSGGSGGMTSTVEFINRWQRIALLSQSLLELAQRGEWDLLLQQEVSYLQSIETVMEKQTPPGITRSIQDMVAGYIKQTLDNEQLLKGLLQQRLDELSSLIGQSTRQKSLNNAYGRLSGMLLVPDAPGAS
chain 2: B1 chain 2

Variants of: B1
Experiment: ITC; parent: 1; read off a plot

Going from chain 2 V126G to chain 2 L100A, the ratio to parent falls from roughly 15 to roughly 4.

Compared with chain 2 D95V, chain 2 V121K is lower in ratio to parent: roughly 15 for the first, roughly 12 for the second.

With chain 2 I79A the ratio to parent was roughly 10.

Variants of: B1
Experiment: ITC; parent: 1; read off a plot
Remark: another data set of the same source

In the case of chain 1 V13G, the ratio to parent is reported as roughly 6.5.

Variants of: B2
Experiment: ITC; parent: 1; read off a plot

Going from chain 2 E279K to chain 2 V121K, the ratio to parent rises from roughly 5 to roughly 7.

First: chain 2 F98A
Second: chain 2 E279K, chain 2 M280G, chain 2 L281G
The ratio to parent of the first is lower: roughly 9 for the first, roughly 10 for the second.

Going from chain 2 V126G to chain 2 T129M, the ratio to parent falls from roughly 4 to roughly 3.3.

Work on chain 2 I79A yielded a ratio to parent of roughly 6.
